This is an account of results in article PMC8423306, “Coordinated action of multiple transporters in the acquisition of essential cationic amino acids by the intracellular parasite Toxoplasma gondii” (PLoS Pathogens, 2021).

Data set [1] addresses T1, TgApiAT6-1 (Toxoplasma gondii, UniProt A0A125YQS6).
T1 construct: gene ApiAT6-1; HA-tagged TgApiAT6-1 open reading frame expressed in Xenopus laevis oocytes
T1 sequence (A0A125YQS6 1-566): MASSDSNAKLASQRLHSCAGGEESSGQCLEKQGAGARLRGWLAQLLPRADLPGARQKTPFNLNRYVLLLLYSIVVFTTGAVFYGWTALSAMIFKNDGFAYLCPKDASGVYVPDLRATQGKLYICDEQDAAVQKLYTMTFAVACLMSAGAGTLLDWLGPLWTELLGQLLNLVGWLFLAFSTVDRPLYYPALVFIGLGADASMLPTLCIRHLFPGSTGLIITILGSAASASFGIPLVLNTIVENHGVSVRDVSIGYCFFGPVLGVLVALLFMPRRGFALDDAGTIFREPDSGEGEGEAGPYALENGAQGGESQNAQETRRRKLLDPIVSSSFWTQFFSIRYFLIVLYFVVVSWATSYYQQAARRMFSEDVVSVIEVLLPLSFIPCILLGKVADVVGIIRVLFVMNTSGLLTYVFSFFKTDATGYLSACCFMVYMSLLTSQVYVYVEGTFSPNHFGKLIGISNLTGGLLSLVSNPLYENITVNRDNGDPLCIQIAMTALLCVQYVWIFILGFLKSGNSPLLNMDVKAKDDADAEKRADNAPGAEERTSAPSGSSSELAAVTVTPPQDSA
Put plainly: radiolabelled uptake in Xenopus oocytes; inhibition of Arg uptake at […]; trans-stimulation. The data set is classed as cell-based.

Data set [2] addresses T1, TgApiAT6-1. The data set is described as follows: inhibition of […]Arg uptake at […] and trans-stimulation of Arg uptake in Xenopus oocytes. The data set is classed as cell-based.
The target of data set [3] is T1, TgApiAT6-1. The data set is described as follows: inhibition of […]Arg uptake at […] and trans-stimulation of Arg efflux in Xenopus oocytes. The class given is cell-based.
Substrate in data set [4]: NCCCC[C@H](N)C(=O)O
Put plainly: cells, lysate or membranes. The data set is classed as cell-based, Toxoplasma gondii. As to conditions: same binding site as Arg; competitive with Arg.

Substrate in data set [5]: N=C(N)NCCC[C@H](N)C(=O)O
The data set is described as follows: cells, lysate or membranes. As to conditions: same binding site as Lys. The class given is cell-based, Toxoplasma gondii.

In the case of `CSCC[C@H](N)C(=O)O` [Met, methionine], the “radiolabelled uptake in Xenopus oocytes; inhibition of Arg uptake at 10 mM; tran” value on TgApiAT6-1 [1] is “TgApiAT6-1 also mediated uptake of Arg and some neutral amino acids including Met and Leu”.
Turning to `N[C@@H](Cc1ccccc1)C(=O)O` [Phe, phenylalanine], the “inhibition of [14C]Arg uptake at 10 mM and trans-stimulation of Arg uptake in Xe” value against TgApiAT6-1 [2] is “numerous neutral amino acids including Met, Leu, Phe and His partially inhibited Arg uptake”.
On to `CC(C)C[C@H](N)C(=O)O` [Leu, leucine], for which the “radiolabelled uptake in Xenopus oocytes; inhibition of Arg uptake at 10 mM; tran” value at TgApiAT6-1 [1] is “TgApiAT6-1 also mediated uptake of Arg and some neutral amino acids including Met and Leu”.
Take `N[C@@H](Cc1c[nH]cn1)C(=O)O` [His, histidine]: the “inhibition of [14C]Arg uptake at 10 mM and trans-stimulation of Arg efflux in Xe” value against TgApiAT6-1 [3] is “numerous neutral amino acids including Met, Leu, Phe and His partially inhibited Arg uptake”.

B1: TgApiAT6-1 (Toxoplasma gondii ME49) (protein)
chain: MASSDSNAKLASQRLHSCAGGEESSGQCLEKQGAGARLRGWLAQLLPRADLPGARQKTPFNLNRYVLLLLYSIVVFTTGAVFYGWTALSAMIFKNDGFAYLCPKDASGVYVPDLRATQGKLYICDEQDAAVQKLYTMTFAVACLMSAGAGTLLDWLGPLWTELLGQLLNLVGWLFLAFSTVDRPLYYPALVFIGLGADASMLPTLCIRHLFPGSTGLIITILGSAASASFGIPLVLNTIVENHGVSVRDVSIGYCFFGPVLGVLVALLFMPRRGFALDDAGTIFREPDSGEGEGEAGPYALENGAQGGESQNAQETRRRKLLDPIVSSSFWTQFFSIRYFLIVLYFVVVSWATSYYQQAARRMFSEDVVSVIEVLLPLSFIPCILLGKVADVVGIIRVLFVMNTSGLLTYVFSFFKTDATGYLSACCFMVYMSLLTSQVYVYVEGTFSPNHFGKLIGISNLTGGLLSLVSNPLYENITVNRDNGDPLCIQIAMTALLCVQYVWIFILGFLKSGNSPLLNMDVKAKDDADAEKRADNAPGAEERTSAPSGSSSELAAVTVTPPQDSA
notes: HA-tagged TgApiAT6-1 open reading frame expressed in Xenopus laevis oocytes
Take B1: in data set [4], the K0.5 amounted to 22.8 µM, the kcat turned out to be 0.042 ± 0.004 s⁻¹ and the catalytic efficiency (kcat/Km) is 1840 M⁻¹ s⁻¹. In data set [5], the K0.5 was found to be 748 µM, the kcat worked out at 0.28 ± 0.1 s⁻¹ and the kcat/Km is 379 M⁻¹ s⁻¹.
